Legend:
LNCaP cells = assay: GREM1-promoted PCa cell proliferation and sphere formation with FGFR1/MEK inhibitors or BMP4; type: cell-based, human
Text: (§1) MAPK signaling can be activated through many membrane receptors besides FGFR. To test whether the activation of MAPK pathway by GREM1 was via FGFR, we constructed a FGFR1 knockout LNCaP subline by the CRISPR/Cas9 method. […] To further test whether the tumor promoting effect of GREM1 was through FGFR, we utilized small molecule inhibitors of FGFR or EGFR.

[1] = test system: FGFR1/MEK/ERK signaling pathway; assay: FGFR1/MEK/ERK phosphorylation in PCa cell lines (immunoblotting); type: cell-based, human
Protocol: In order to test whether Gremlin1 promoted the FGFR-MAPK signaling, we first performed analysis of the expression levels of the four FGFRs in CRPC patients. […] We treated LNCaP and PC3 with GREM1 in different concentrations (1 ng/ml, 10 ng/ml, 100 ng/ml) and examined phosphorylation levels of FGFR1, MEK and ERK.
as §1
14E3 was tested to target GREM1 in human PCa.

FGFR1 = FGFR1 (Homo sapiens, UniProt P11362); assay: ELISA binding of DAN family proteins to FGFR1
Sequence of FGFR1 (P11362 3-822 limits assumed): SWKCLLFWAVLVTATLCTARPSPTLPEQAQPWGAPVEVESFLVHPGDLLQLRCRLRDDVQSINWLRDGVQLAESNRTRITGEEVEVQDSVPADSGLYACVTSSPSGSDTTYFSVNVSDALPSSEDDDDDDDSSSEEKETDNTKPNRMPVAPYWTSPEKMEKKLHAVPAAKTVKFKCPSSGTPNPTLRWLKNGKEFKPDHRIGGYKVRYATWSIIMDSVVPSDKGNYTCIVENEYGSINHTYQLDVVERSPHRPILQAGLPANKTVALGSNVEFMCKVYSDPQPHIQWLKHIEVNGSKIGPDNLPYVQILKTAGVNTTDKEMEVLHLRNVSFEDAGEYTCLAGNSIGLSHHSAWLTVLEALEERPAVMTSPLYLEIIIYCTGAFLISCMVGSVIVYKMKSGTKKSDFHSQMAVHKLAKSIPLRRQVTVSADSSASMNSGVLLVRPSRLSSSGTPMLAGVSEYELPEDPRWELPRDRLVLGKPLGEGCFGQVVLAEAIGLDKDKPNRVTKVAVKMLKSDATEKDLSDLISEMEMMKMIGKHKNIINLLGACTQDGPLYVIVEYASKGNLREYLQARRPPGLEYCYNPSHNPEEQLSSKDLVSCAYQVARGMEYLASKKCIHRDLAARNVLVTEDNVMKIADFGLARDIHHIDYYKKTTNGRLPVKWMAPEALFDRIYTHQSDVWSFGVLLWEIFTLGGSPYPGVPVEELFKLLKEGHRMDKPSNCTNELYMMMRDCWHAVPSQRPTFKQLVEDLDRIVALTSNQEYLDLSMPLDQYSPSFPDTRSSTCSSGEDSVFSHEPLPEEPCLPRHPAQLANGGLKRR

PC3 cells = assay: Sphere formation, proliferation and apoptosis of PC3 cells; type: cell-based, human; details: 100 ng/ml GREM1 protein in culture medium
Text: Metastatic prostate cancer is a devastating disease and most cancers progress upon serial treatments with either androgen receptor antagonist or chemotherapy. One of the key cell types resistant to these treatments are cells with stem cells like property which has the capability of forming tumor spheres in suspension culture. To explore the role of GREM1 in the progression of CRPC, we utilized AR independent CRPC cell line PC3, as well as the AR dependent PCa cell line LNCaP and LAPC4. We generated cell sublines with loss or gain of GREM1 expression (FIGS. 3A, 4A and 5A).
14E3 was tested to target GREM1 in human PCa. The affinity and specificity of this antibody to hGREM1 was verified by ELISA (FIG. 12A). […] This antibody potentiated the anti-tumor effect of Enzalutamide in AR dependent LNCaP cells (FIG. 12B, 12C, 10K, 10L).

PC-3 cells = assay: Scratch migration assay of PC-3 cells; type: cell-based, human; details: 1 μg/ml Gremlin, 3 days
Protocol: PC-3 cells at log-growth phase were harvested and re-suspended in cell culture medium (DMEM medium supplied with 10% FBS). Cells were non-treated or treated with 1 μg/ml Gremlin or 10 μg/ml 14E3 or 10 μg/ml control mIgG2a for 3 days. Then cells were planted at 10^5 cells/well in 6-well cell culture plate. After cells reached 100% coverage of the bottom of wells, the medium was changed to serum free medium. Each well was made with one scratch using 200 μl-tip. The migration rate of cells were analyzed by calculating the area of cells growing on the scratch using Image J software.

LNCaP-PSA cells = assay: LNCaP-PSA reporter cell assay (PSA-low population, flow cytometry); type: cell-based, human; details: dose dependent; day 7
Text: In order to assess the role of gremlin1 in modulating tumor prostate cell growth, we tested the antibodies provided herein in an assay involving prostate cancer cell LNCaP. This cell line was transfected with a PSA promoter driven GFP expression lentivirus plasmid. PSA is known as a differentiated marker of prostate cell and prostate cancer cells with low level of PSA represent poorly differentiated or undifferentiated prostate cancer cells. These cells usually have stem cell like property and have more aggressive growth property. The LNCaP reporter cell assay is briefly described below.
LNCaP-PSA cells were plated in 24-well plates at 10000/well in RPMI 1640/10% FBS (GIBCO), 1% P/S (complete media) and incubated at 37° ° C. and 5% CO2 overnight. The next day, remove media, 1 ug/ml human gremlin (ACRO) or human gremlin with serially diluted antibodies were added to the cells. Change medium every three days. On day 7, remove media from the wells, wash with PBS twice, run flow cytometer (Bechman) using FITC channel.

Molecule	proliferation promoting role of GREM1 (LNCaP cells)	sphere-formation promoting role of GREM1 (LNCaP cells)	phosphorylation levels of FGFR1, MEK1/2 and ERK1/2 following GREM1 stimulation on addition of BMP4 ([1]; BMP4 20 ng/ml, PC3 and LNCaP-resistance cells)	binding to FGFR1 (FGFR1)	cell proliferation (PC3 cells)	sphere formation (PC3 cells)	cell migration of prostate cancer cells (PC-3 cells)	time MAPK activation was maintained at a high level ([1]; Gremlin1 100 ng/ml, PC3 and LNCaP cells)	p-FGFR1, p-MEK1/2 and p-ERK1/2 levels ([1]; LNCaP and PC3, 1 ng/ml, 10 ng/ml, 100 ng/ml, dose dependent)	percentage of the PSA-low LNCaP population (LNCaP-PSA cells)
BMP4: BMP ligand added to cells (protein, UniProt P12644 293-408, looked up) Bone morphogenetic protein 4: SPKHHSQRARKKNKNCRRHSLYVDFSDVGWNDWIVAPPGYQAFYCHGDCPFPLADHLNSTNHAIVQTLVNSVNSSIPKACCVPTELSAISMLYLDEYDKVVLKNYQEMVVEGCGCR	not affected	not affected	did not alter	–	–	–	–	–	–	–
GREM1: gremlin1 protein, secreted BMP antagonist of the DAN family, added exogenously or immobilized (protein) KKKGSQGAIPPPDKAQHNDSEQTQSPQQPGSRNRGRGQGRGTAMPGEEVLESSQEALHVTERKYLKRDWCKTQPLKQTIHEEGCNSRTIINRFCYGQCNSFYIPRHIRKEEGSFQSCSFCKPKKFTTMMVTLNCPELQPPTKKKRVTRVKQCRCISIDLD	–	–	–	binds	significant elevation	significant elevation	accelerated	up to 1 hour	increase	increased
